Biological target: Cas9 from Streptococcus pyogenes (SpyCas9) (Streptococcus pyogenes) (UniProt Q99ZW2)

Work on AcrIIA25.1 (natural protein) yielded an in vitro DNA cleavage by SpyCas9 RNP (256 nM), Acr titrated 0-8192 nM: Acr concentration that inhibits SpyCas9 of 512 nM.
For AcrIIA26 (natural protein), the in vitro DNA cleavage by SpyCas9 RNP (256 nM), Acr titrated 0-8192 nM: Acr concentration that inhibits SpyCas9 was over 2050 nM.
AcrIIA27 (natural protein) gave an in vitro DNA cleavage by SpyCas9 RNP (256 nM), Acr titrated 0-8192 nM: Acr concentration that inhibits SpyCas9 of over 2050 nM.
Substance AcrIIA28 (natural protein) has an in vitro DNA cleavage by SpyCas9 RNP (256 nM), Acr titrated 0-8192 nM: Acr concentration that inhibits SpyCas9 of 512 nM.
For AcrIIA32.1 (natural protein), the in vitro DNA cleavage by SpyCas9 RNP (256 nM), Acr titrated 0-8192 nM: Acr concentration that inhibits SpyCas9 was 512 nM.

From article PMC8934645
